Patent publication US20240207464A1

Key:
[1] = target: Protein G (Dynabeads Protein G, Thermo Fisher Scientific) (UniProt P19909); assay: immunoprecipitation with Dynabeads Protein G after storage in human plasma at 37 C, 14 day point
[2] = target: Protein G (Dynabeads Protein G, Thermo Fisher Scientific) (UniProt P19909); assay: immunoprecipitation with Dynabeads Protein G after storage in human plasma at 37 C, 1 day point
[3] = target: Protein G (Dynabeads Protein G, Thermo Fisher Scientific) (UniProt P19909); assay: immunoprecipitation with Dynabeads Protein G after storage in rat plasma at 37 C, 1 day point
[4] = target: Protein G (Dynabeads Protein G, Thermo Fisher Scientific) (UniProt P19909); assay: immunoprecipitation with Dynabeads Protein G after storage in rat plasma at 37 C, 0 day point
[5] = target: Protein G (Dynabeads Protein G, Thermo Fisher Scientific) (UniProt P19909); assay: immunoprecipitation with Dynabeads Protein G after storage in human plasma at 37 C, 7 day point
[6] = target: Protein G (Dynabeads Protein G, Thermo Fisher Scientific) (UniProt P19909); assay: immunoprecipitation with Dynabeads Protein G after storage in mouse plasma at 37 C, 7 day point
[7] = target: Protein G (Dynabeads Protein G, Thermo Fisher Scientific) (UniProt P19909); assay: immunoprecipitation with Dynabeads Protein G after storage in human plasma at 37 C, 0 day point; share of radioactivity bound to Protein G
[8] = target: Protein G (Dynabeads Protein G, Thermo Fisher Scientific) (UniProt P19909); assay: immunoprecipitation with Dynabeads Protein G after storage in monkey plasma at 37 C, 7 day point
[9] = target: Protein G (Dynabeads Protein G, Thermo Fisher Scientific) (UniProt P19909); assay: immunoprecipitation with Dynabeads Protein G after storage in monkey plasma at 37 C, 1 day point
[10] = target: Protein G (Dynabeads Protein G, Thermo Fisher Scientific) (UniProt P19909); assay: immunoprecipitation with Dynabeads Protein G after storage in monkey plasma at 37 C, 0 day point
[11] = target: Protein G (Dynabeads Protein G, Thermo Fisher Scientific) (UniProt P19909); assay: immunoprecipitation with Dynabeads Protein G after storage in rat plasma at 37 C, 7 day point
[12] = target: Protein G (Dynabeads Protein G, Thermo Fisher Scientific) (UniProt P19909); assay: immunoprecipitation with Dynabeads Protein G after storage in mouse plasma at 37 C, 0 day point
[13] = target: Protein G (Dynabeads Protein G, Thermo Fisher Scientific) (UniProt P19909); assay: immunoprecipitation with Dynabeads Protein G after storage in mouse plasma at 37 C, 1 day point

recovery rate (%) by beads [1]: 76.4% | recovery rate (%) by beads [2]: 90.5% | recovery rate (%) by beads [3]: 94.8% | recovery rate (%) by beads [4]: 97.4% | recovery rate (%) by beads [5]: 81% | recovery rate (%) by beads [6]: 93.1% | recovery rate (%) by beads [7]: 95% | recovery rate (%) by beads [8]: 90.5% | recovery rate (%) by beads [9]: 90.4% | recovery rate (%) by beads [10]: 92.9% | recovery rate (%) by beads [11]: 90.4% | recovery rate (%) by beads [12]: 98.1% | recovery rate (%) by beads [13]: 95%
Substance: radioconjugate (Example 1): conjugate with rituximab by using 225Ac-labeled DOTAGA-DBCO (antibody)
